The values below come from paper doi:10.1101/2020.12.16.421545v1.

Substrate in this series: CCCC(=O)Oc1ccc([N+](=O)[O-])cc1
Briefly: purified protein. It is filed as biochemical, uncultured Pseudomonadota bacterium. Particulars: 36 nM enzyme, no added Co2+.

Where [1] appears, read: without Triton X-100, sigmoidal (hysteresis).

B1: Ade1 (Amazonian Dark Earth Esterase 1) (uncultured Pseudomonadota bacterium) (protein)
chain: MLYAQVNGINLHYEIEGQGQPLLLIMGLGAPAAAWDPIFVQTLTKTHQVIIYDNRGTGLSDKPDMPYSIAMFASDAVGLLDALNIPRAHVFGVSMGGMIAQELAIHYPQRVASLILGCTTPGGKHAVPAPPESLKALEGRAGLTPEEAIREGWKLSFSEEFIHTHKAELEAHIPRLLAQLTPRFAYERHFQATMTLRVFKQLKEIQAPTLVATGRDDMLIPAVNSEILAREIPGAELAIFESAGHGFVTSAREPFLKVLKEFLARQSV
A word on the kcat: it is the number of substrate molecules converted per active site and unit of time at saturation. B1: where the note is “with Triton X-100”, the K0.5 turned out to be 254 ± 25 µM and the kcat came out at 47 ± 1 s⁻¹. Further, under setting [1], the K0.5 was determined as 392 ± 29 µM and the kcat was 94 ± 3 s⁻¹.
